Source: article PMC12322997, “Asxl1 regulates optic cup development through interaction with Lhx2 and epigenetic modulation of Wnt signaling” (Animal Cells and Systems, 2025)

Biological target: T1, GST-mAsxl1 (aa 1193-1514) (mouse, UniProt P59598 1193-1514)
T1 construct: also called GST-fused Asxl1 protein; source: E. coli, purified (glutathione-Sepharose beads)
T1 sequence (looked up): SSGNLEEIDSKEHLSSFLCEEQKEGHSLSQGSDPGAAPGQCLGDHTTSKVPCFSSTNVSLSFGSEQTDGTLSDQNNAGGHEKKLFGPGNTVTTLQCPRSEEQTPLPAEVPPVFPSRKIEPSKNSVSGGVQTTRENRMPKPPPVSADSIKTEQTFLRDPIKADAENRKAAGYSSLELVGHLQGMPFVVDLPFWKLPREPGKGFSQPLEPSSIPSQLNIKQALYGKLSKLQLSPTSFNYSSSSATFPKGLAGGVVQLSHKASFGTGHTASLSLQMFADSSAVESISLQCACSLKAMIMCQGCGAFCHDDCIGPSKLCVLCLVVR
Assay: pull-down; GST pull-down; GST-mAsxl1 on glutathione-Sepharose, His-hLHX2 purified on Ni-NTA; bound protein detected by anti-His Western blot
Settings: both partners purified

- binding result: binds
B1: His-hLhx2 (aa 42-221) (domain or fragment, human, UniProt P50458 42-221, looked up)
chain: MPSISSDRAALCAGCGGKISDRYYLLAVDKQWHMRCLKCCECKLNLESELTCFSKDGSIYCKEDYYRRFSVQRCARCHLGISASEMVMRARDLVYHLNCFTCTTCNKMLTTGDHFGMKDSLVYCRLHFEALLQGEYPAHFNHADVAAAAAAAAAAKSAGLGAAGANPLGLPYYNGVGTVQ
notes: LHX2, human (hLHX2), residues 42-221; also called His-tagged Lhx2 protein; source: E. coli, purified (Ni-NTA agarose beads)
